Source: the RNAGym collection of RNA variant scans (doi:10.1073/pnas.2313332121)

B1: TPR t1 (parent)
chain: GACCAAUCUGCCCUCAGAGCUCGAGAACAUCUUCGGAUGCAGAGGAGGCAGGCUUCGGUGGCGCGAUAGCGCCAACGUCCUCAACCUCCAAUGCAUCCCACCACAUGAUGAUGCCUGAAGAGCCUUGGUUUUUUG

Variants of: B1
Assay: polymerase ribozyme fitness, log enrichment relative to wild type (log ratio); higher = more active; in vitro selection for triplet polymerase activity
In short: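 For each subunit of a heterodimeric triplet polymerase ribozyme, a mutant library was built by PCR and transcribed, then taken through a single in vitro selection round in triplicate. Selection involved annealing to a biotinylated primer, the partner subunit and triplets, incubation frozen at −7 °C, gel excision of extended constructs, capture on streptavidin beads and RT-PCR. Genotypes were retained after Illumina sequencing of inputs and outputs only with ≥10 input reads and ≥1 read in each output. Fitness is defined as the logarithm of a genotype's enrichment relative to wild-type enrichment, using inverse-variance-weighted averages across replicates, with the logarithm taken to base 2.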

Variant	polymerase ribozyme fitness (log ratio)
C3G U14A C20A G42U G61U G117A U131G G135C	-3.96
C3G C73A C76U A90G G120U G127U	-3.52
C3G A119G	-0.446
C3G C40G A121G U130G	0.237
C3U A5G C8G C11G C73U C99A U109A G120A	-5.15
C3U A50U G52U	-3.28
A2U G10U C115U	-3.43
C3A A37U C82U U112C	-0.239
C3A C56A G135U	-2.75
C3A C88A	-2.21
C3A U33A C86A U112G	-6.24
A2U U106A G128U U131C	-1.21
C3G C72A C94G C124A	-1.46
C3A G57A U92C	-5.31
C3U A84G G120A	-0.608
C3A G57C A90U C114A U132C	-3.92
C3A C89A	-2.07
C3A A26U	-4.19
C3U A46U	-1.57
C3G C8G G117A G120A G135U	-1.6
A2U G61U	-1.84

Variant	polymerase ribozyme fitness (log ratio)
A2U G61A	-2.17
C3A U9G C40U G57U A105G	-4.58
C3G A18U A43U C114G	-4.61
C3G U7A G63C A95C	-2.41
C3A C89U U96G C124A	0.0977
C3U A100C G135C	-2.44
C3A C13U C73U	-1.44
C3A C73U C79G A119G C123A	0.0633
C3A C8U U59A U87G	-1.65
A2U C101U	-1.78
C3G C62U G120C	-0.751
A2U C15A	-4.12
A2U G10A	-2.85
A2U C13U A50G U112C	0.516
A2U G36C A74C	-3.04
A2U G60U	-1.99
C3A C20U C101A A105C C114U U131G	-2.47
C3A A27C G45A C53A C123U	-4.25
C3A C12U C102A	-1.7
C3U A16G A90G U112G U116C	0.876
C3G G61U C94A A95C C124A U132C U133C	-3.25

Variant	polymerase ribozyme fitness (log ratio)
C3A A111C	-1.17
C3A G10A G44U	-3.54
C3G G63U	-2.85
C3G G63C	-2.64
A2U G47U G61U	-4.48
C3G C12G C40A	-3.27
C3A C20U U38A G61A C82A G110A G127A	-6.34
C3A G128U	-1.03
A2U C12G G63A	-3.14
A2U C88A A121U	-0.332
C3A C34U C79U C114A C124G G128U	-4.76
C3G G57A G60A A111C	-2.99
C3G C8G U32C C115G	-2.01
C3G U78A U96A C123G U131C	-0.54
C3A C20G G60A C79U C98G C99A C123G	-2.5
C3G C11G G19U G120A	-3.18
C3U A105U	-1.94
A2U C49U G113C	-5.26
A2U C73A U78A U87C C124A U126A	-1.46
C3G G36A G39C C53U A121C	-2.59
C3A C20U G65A C101A A105C C114U U131G	-7.29

Variant	polymerase ribozyme fitness (log ratio)
C3U C8U G61C G120A	0.504
C3A U87A C94U U106G C115U G120C	-5.04
C3A C15G C72G G117C A119U	-0.76
A2U U112G	-1.44
C3G A27U G52A C72U U129A	-4.63
C3G C4A C40U C53A C70U C86A C98U U112A	-5.43
A2U C12U	-2.36
C3A U32C G69A G120A	-3.63
C3U A6U G48A C115U	-2.28
C3G G42A C56G U106C G113U A121U	-4.31
C3A G93A A95G	-2.11
C3A G39A U54C C70U C104U	-2.33
C3G C11A C115U	-6.42
C3G U7A C40A G44A A111U	-5.51
C3U A91U C115U	-1.86
C3A C62U	-1.99
C3A C62G	-2.38
A2U C40U C115A A121U	0.0194
C3A U9A G61C	-2.34
C3G C53G C86G C94U U106G G120A	-5.63
